Laboratory results as given in patent US10849966B2, “Methods for treating netosis and neutrophil activation” (TRUSTEES OF BOSTON UNIVERSITY, priority 2017, dated 2020).
Read-outs that look alike come from different tables or passages of the source.

Experiments:
[1] = system: pancreatic peritoneal metastatic tumors; test: combination anti-DEspR mAb and gemcitabine in rats with pancreatic peritoneal metastatic tumors; type: in vivo; conditions: per rat
Experimental: FIG. 36 depicts representative images of tumor treated rats with combination anti-DEspR mAb and gemcitabine vs gemcitabine alone, and mock-treated saline controls. GEM tx: gemcitabine treatment (100 mg/kg/dose iv×2). Hu-6g8 or ABTM-468: humanized anti-DEspR mAb treatment 1 mg/kg/dose iv×1/week×2. Combo-tx: combination therapy. Saline mock Tx: mock.
The observations of anti-DEspR/gemcitabine synergy supports the potential of anti-DEspR mAb therapy to be a compelling partner for combination with checkpoint inhibitors. […] The paradigm of unique combinatorial synergy was further tested in vivo. […] Moreover, there was no ascites in ComboTx-rats. Gut distention from gut-dysfunction is also evident in saline mock-treated (Tx) control. (FIG. 36).
Importantly, metastasis to the liver and retroperitoneal space, and ascites were all prevented/inhibited by ComboTx.

[2] = system: activated neutrophils; test: dose-response survival assay of activated neutrophils (Trypan blue dye exclusion); type: cell-based; conditions: for IC50: live cells counted by Trypan blue dye exclusion, read-out: IC50, inhibition of activated neutrophil survival
Source text: FIG. 6 depicts a graph comparison of functional activity of anti-DEspR fully humanized 6g8 mAb, 6g8-humab, and prototype murine anti-DEspR 6g8 mAb, 6g8-mumab.
(§1) FIGS. 17A-17C depict anti-DEspR-mab (hu6g8 mab). FIG. 17A depicts a diagram of DEspR, murine precursor mabs and humanized IgG and IgG4 mabs. Hu6g8 is notated as 6g8g7-hu-IgG4 raised against epitope 2, spanning the putative binding domain.
Described herein are the advantages of anti-DEspR mAb targeted AECs. DEspR, the dual endothelin1/signal peptide receptor,^9 is a validated target on human activated neutrophils and NETs. Hu6g8 binds human activated neutrophils (FIG. 18A) and NETs (FIG. 18B), as confirmed by Western Blot analysis of DEspR protein in human kidney (K), and activated neutrophil samples, act-Ns (FIG. 18C). Humanized anti-DEspR-mab (hu6g8 mab) is an ideal targeting moiety. Hu6g8 is the multi-species Human/NHPrimate/Rat reactive humanized-deimmunized anti-DEspR-mab with a hinge-stabilized IgG4S228P/kappa Fc region (FIG. 17A) to avoid (ADCC-antibody dependent cell-mediated cytotoxicity, CDC-complement dependent cytotoxicity), and to eliminate loss of targeting upon Fab arm exchange typical of native IgG4 isotype. […] Through recombinant DNA technology, the antibody design incorporates: a) avoidance of T-cell epitopes for low immunogenicity; b) optimization of heavy and light chain interactions for stability of variable domains; and, c) exclusion of destabilizing post-translational modification sites [e.g., deamidation, oxidation]. The targeting of DEspR^+ NETs, but sparing of DEspR(−) quiescent neutrophils via the anti-DEspR mAb is also novel. […] The use of human neutrophil-elastase cleavable linker is advantageous as this connector-peptide can be added by recombinant technology and HNE is enriched on NETs and actually a reason for the injurious properties of NETs. HNE is desirable for local therapeutic delivery [Owen C A, Campbell E J. J Leukocyte Biol 1999, 65 (2) 137-150], has specificity for small uncharged amino acids particularly alanine (A) and valine (V) [Meers P. Adv Drug Delivery Rev. 2001. 53 (3) 265-272]. […] The advantages of all three in an AEC is novel and robust as the targeted delivery and release of DNAse 1 on NETs can attain in vivo efficacy of what has been shown in vitro, the induction of macrophage uptake-and-clearance of NETs upon DNAse 1 digest of NETs DNA. In summary, targeting the intravascular NETs sites. The humanized anti-DEspR-mab with a hinge-stabilized IgG4/kappa Fc region to avoid Fab arm exchange in vivo and ensuing loss of targeting was selected. Additionally, this avoids immune effector functions of IgG1 mAbs (ADCC, CDC), which would worsen endothelial injury. […]

[3] = system: LPS-activated neutrophils; test: ex vivo survival of LPS-activated neutrophils; type: cell-based, rat; conditions: vs control non-treated activated neutrophils, P<0.0001; listed as 6g8
Source text: FIGS. 2A-2B depict DEspR expression on rat activated neutrophils and anti-DEspR inhibition of activated neutrophil survival. FIG. 2A) FACS analysis of CD11b activated neutrophils that are DEspR+(bold oval), and DEspR[−] (bold circle). Quiescent neutrophils are DEspR[−] and CD11B[−] in Quadrant Q4. FIG. 2B depicts inhibition of the extended survival of activated neutrophils by two different anti-DEspR mAbs targeting two different epitopes on DEspR.
DEspR is expressed on activated human neutrophils (FIG. 1A) and in neutrophils undergoing NETosis (FIG. 1C-D), in contrast to isotype control (FIG. 1B). Anti-DEspR mAb detects DEspR expression on rat LPS-activated neutrophils (FIG. 2A). […] Majority of CD11b activated neutrophils are DEspR+(Red bold circle) in contrast to CD11b+ but DEspR(−) (yellow circle) activated neutrophils (FIG. 2A).
Briefly, this anti-DEspR approach is supported by experimental data as outlined below: • 1. Validation of DEspR as target. DEspR is expressed on activated human neutrophils (FIG. 1A,1C,1D). Anti-DEspR immunostaining specificity is shown by no signal in isotype control neutrophils (FIG. 1B). Most human neutrophils undergoing NETosis are DEspR+ (FIG. 1C-1D). NETs (neutrophil extracellular traps) are associated with organ microthrombi in MOF and directly induce endothelial and epithelial cell death,^56 all of which are pathogenic events in ARDS. • 2. […]

[4] = target: T1, DEspR on intact human cells (Homo sapiens, UniProt B0L3A2); test: hu6g8 binding to DEspR on intact human cells; conditions: done in triplicate
T1 construct: endogenous in cells; host or cells: intact human cells / 'DEspR+ human cells'
T1 sequence (B0L3A2 1-85): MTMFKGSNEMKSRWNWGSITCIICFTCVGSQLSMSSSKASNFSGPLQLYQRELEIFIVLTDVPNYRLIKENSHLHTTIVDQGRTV
Source text: as §1
Described herein is the development, characterization, and validation of a fully humanized anti-DEspR mAb with a S228P hinge-stabilized IgG4/kappa FC region, designated herein as hu-6g8 or […]. The hu-6g8 was designed for high binding affinity to DEspR+ human cells and inhibition of activated neutrophil survival. hu-6g8 is reactive in all species, having identical epitopes in human, primates and rodents, which facilitates preclinical and clinical studies using the therapeutic lead. […] (FIG. 6). Through recombinant DNA technology, hu-6g8 was designed with optimal biophysical properties via: a) avoidance of T-cell epitopes for low immunogenicity—‘deimmunized’, b) optimization of heavy and light chain interactions for stability of variable domains, and c) exclusion of destabilizing post-translational modification sites [deamidation, oxidation, acid-lability, inappropriate N-glycosylation, isomerization and pyroglutamate formation].
Described herein are the advantages of anti-DEspR mAb targeted AECs. DEspR, the dual endothelin1/signal peptide receptor,^9 is a validated target on human activated neutrophils and NETs. […]

[5] = system: LPS-induced hemorrhagic encephalopathy in stroke prone rats; test: LPS-induced hemorrhagic encephalopathy / multi-organ failure rat model; type: in vivo
Source text: FIG. 3A) control rat brain after PBS-buffer perfusion to eliminate intravascular blood.
FIG. 4 depicts a survival curve analysis of anti-DEspR treated rats compared with non-treated rats in a rat model of LPS-induced multi-organ failure manifesting predominantly as hemorrhagic encephalopathy (phenotype corroborated in FIG. 3A-3F).
Neutrophil-mediated tissue injury has been implicated in blood brain barrier disruption or injury.
The murine precursor anti-DEspR antibody, 6g8-mumab, was studied in a rat model of LPS-induced hemorrhagic encephalopathy as a paradigm of multi-organ failure (MOF) in ARDS and sepsis (FIG. 3A-3F).
It was also determined whether anti-DEspR can increase survival of rats in a LPS-induced hemorrhagic encephalopathy MOF rat model.

Row | Molecule | Ascites volume [1] [mls] | Tumor weight (g) Greater Omentum [1] [g] | Ascites ([1]; GEM 100 mg/kg/dose iv×2, hu-6g8 1 mg/kg/dose iv×1/week×2) | IC50 ([2]; listed as mu-6g8) [nM] | IC50 [2] [nM] | IC50, inhibition of activated neutrophil survival ([2]; maximum dose used in the dose-response survival assay) [µg/mL] | survival of activated neutrophils ex vivo [3] | EC50 [4] [nM] | progression to hemorrhagic encephalopathy ([5]; single dose 1 mg/kg/dose iv after LPS) | murine IgG levels in brain (ELISA of brain membrane proteins) ([5]; treated rat brains, target engagement) | neutrophil myeloperoxidase (MPO) levels in the brain (ELISA) ([5]; vs non-treated LPS brains) | rat albumin levels in the brain (ELISA), brain edema ([5]; vs non-treated LPS brains)
1 | Nc1ccn([C@@H]2O[C@H](CO)[C@@H](O)C2(F)F)c(=O)n1 [GEM, gemcitabine] | 1.5 | 1.6351 | Bloody |  |  |  |  |  |  |  |  | 
2 | 6g8-mumab: murine precursor anti-DEspR antibody, pan-species reactive anti-Human/Rat/Monkey DEspR mAb (antibody, V domains shown) VH: GSEVQLQESGGGLVQPGGSLKLSCAASGFDFSRYWMSWVRQAPGKGLEWIGEINPDSSTINYTPSLKDKFIISRDTAKKTLYLQMSKVRSEDTALYYCARHGRGMDYWSQGTSVTVSSAKTTPPSVYGGGGS VL: GGGGSDIVLTQTNQIMSASVGDRVSVTCKASQNVDSNVAWYQQKPGHSPKALIYSASYRYSRVPDRITGSGSGTDFTLTITNVQSKDLADYFCQQYHSYPLLAFGAGTKLELKRADAAPTVSLE |  |  |  | > 198 | > 200 | > 30 | decreased their survival | 178 | attenuated the progression to life-threatening hemorrhagic encephalopathy | greater brain levels than anti-DEspR 10a3 | decreased myeloperoxidase levels | decreased albumin levels
